Data taken from patent US20150045540A1 (published 2015).

T1: Placenta Growth Factor (PlGF), human (human, UniProt P49763 21-149)
T1 chain: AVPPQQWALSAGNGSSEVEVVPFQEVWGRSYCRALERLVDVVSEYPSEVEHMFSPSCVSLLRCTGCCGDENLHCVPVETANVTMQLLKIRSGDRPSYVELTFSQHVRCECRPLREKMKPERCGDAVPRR


Key:
[1] = biological target: T1, Placenta Growth Factor (PlGF), human; assay: ELISA
[2] = biological target: Hepatocyte Growth Factor (HGF), human (human, UniProt P14210 32-728); assay: ELISA
Hepatocyte Growth Factor (HGF), human, sequence (P14210 32-728): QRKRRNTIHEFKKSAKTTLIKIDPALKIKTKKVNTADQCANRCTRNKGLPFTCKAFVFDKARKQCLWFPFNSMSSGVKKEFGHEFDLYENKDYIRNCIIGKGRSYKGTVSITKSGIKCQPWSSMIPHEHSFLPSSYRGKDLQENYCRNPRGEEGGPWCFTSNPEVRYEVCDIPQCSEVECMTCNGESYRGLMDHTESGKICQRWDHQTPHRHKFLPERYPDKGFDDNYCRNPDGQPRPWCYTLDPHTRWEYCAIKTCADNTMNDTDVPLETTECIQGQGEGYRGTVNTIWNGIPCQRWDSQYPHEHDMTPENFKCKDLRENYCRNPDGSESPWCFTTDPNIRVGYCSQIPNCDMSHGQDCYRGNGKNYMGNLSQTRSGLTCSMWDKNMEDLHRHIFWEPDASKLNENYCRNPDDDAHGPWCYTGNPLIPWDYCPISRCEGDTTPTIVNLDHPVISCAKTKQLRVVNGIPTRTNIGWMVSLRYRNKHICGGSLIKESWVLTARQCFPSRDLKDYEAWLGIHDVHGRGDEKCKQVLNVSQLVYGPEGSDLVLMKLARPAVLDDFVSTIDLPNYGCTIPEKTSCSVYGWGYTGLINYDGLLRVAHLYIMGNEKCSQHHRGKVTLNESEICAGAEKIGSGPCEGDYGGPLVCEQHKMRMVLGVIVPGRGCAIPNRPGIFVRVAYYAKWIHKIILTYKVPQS

| EC50 [1] | EC50 [2] | Binder |
| --- | --- | --- |
| 0.248 nM | 0.052 nM | HC 2/SLC 5 (antibody) chain 1: GQGTLVTVSSASQPVLHQPPAMSSALGTTIRLTCTLRNDHDIGVYSVYWYQQRPGHPPRFLLRYFSQSDKSQGPQVPPRFSGSKDVARNRGYLSISELQPEDEAMYYCAMGARSRCWPRGFQSKHNSVTHVFGSGTQLTVLSQPKATPSVTLFPPSSEELQANKATLVCLMNDFYPGILTVTWKADGTPITQGVEMTTPSKQSNNKYAASSYLSLTPEQWRSRRSYSCQVMHEGSTVEKTVAPAECS chain 2: MSWAPVLLMLFVYCTGCGPQPVLHQPPAMSSALGTTIRLTCTLRNDHDIGVYSVYWYQQRPGHPPRFLLRYFSQSDKSQGPQVPPRFSGSKDVARNRGYLSISVTHVFGSGTQLTVLSQPKAQVQLVQ |
| 0.181 nM | 0.061 nM | HC 10/SLC 5 (antibody) chain 1: GQGTLVTVSSASTKGPSVFPQPVLHQPPAMSSALGTTIRLTCTLRNDHDIGVYSVYWYQQRPGHPPRFLLRYFSQSDKSQGPQVPPRFSGSKDVARNRGYLSISELQPEDEAMYYCAMGARSRCWPRGFQSKHNSVTHVFGSGTQLTVLSQPKATPSVTLFPPSSEELQANKATLVCLMNDFYPGILTVTWKADGTPITQGVEMTTPSKQSNNKYAASSYLSLTPEQWRSRRSYSCQVMHEGSTVEKTVAPAECS chain 2: MSWAPVLLMLFVYCTGCGPQPVLHQPPAMSSALGTTIRLTCTLRNDHDIGVYSVYWYQQRPGHPPRFLLRYFSQSDKSQGPQVPPRFSGSKDVARNRGYLSISVTHVFGSGTQLTVLSQPKAQVQLVQ |
| 0.085 nM | 0.058 nM | HC 8/SLC 7 (antibody) chain 1: GQGTLVTVSSASTKGPSVQPVLHQPPAMSSALGTTIRLTCTLRNDHDIGVYSVYWYQQRPGHPPRFLLRYFSQSDKSQGPQVPPRFSGSKDVARNRGYLSISELQPEDEAMYYCAMGARSRCWPRGFQSKHNSVTHVFGSGTQLTVLSQPKATPSVTLFPPSSEELQANKATLVCLMNDFYPGILTVTWKADGTPITQGVEMTTPSKQSNNKYAASSYLSLTPEQWRSRRSYSCQVMHEGSTVEKTVAPAECS chain 2: MSWAPVLLMLFVYCTGCGPQPVLHQPPAMSSALGTTIRLTCTLRNDHDIGVYSVYWYQQRPGHPPRFLLRYFSQSDKSQGPQVPPRFSGSKDVARNRGYLSISVTHVFGSGTQLTVLSQPKATPQVQLVQ |
| 0.05 nM | 0.048 nM | HC 8/SLC 15 (antibody) chain 1: GQGTLVTVSSASTKGPSVQPVLHQPPAMSSALGTTIRLTCTLRNDHDIGVYSVYWYQQRPGHPPRFLLRYFSQSDKSQGPQVPPRFSGSKDVARNRGYLSISELQPEDEAMYYCAMGARSRCWPRGFQSKHNSVTHVFGSGTQLTVLSQPKATPSVTLFPPSSEELQANKATLVCLMNDFYPGILTVTWKADGTPITQGVEMTTPSKQSNNKYAASSYLSLTPEQWRSRRSYSCQVMHEGSTVEKTVAPAECS chain 2: MSWAPVLLMLFVYCTGCGPQPVLHQPPAMSSALGTTIRLTCTLRNDHDIGVYSVYWYQQRPGHPPRFLLRYFSQSDKSQGPQVPPRFSGSKDVARNRGYLSISVTHVFGSGTQLTVLSQPKATPSVTGGGGSQVQLVQ |
| 0.135 nM | 0.055 nM | HC 3/SLC 3 (antibody) chain 1: GQGTLVTVSSASTQPVLHQPPAMSSALGTTIRLTCTLRNDHDIGVYSVYWYQQRPGHPPRFLLRYFSQSDKSQGPQVPPRFSGSKDVARNRGYLSISELQPEDEAMYYCAMGARSRCWPRGFQSKHNSVTHVFGSGTQLTVLSQPKATPSVTLFPPSSEELQANKATLVCLMNDFYPGILTVTWKADGTPITQGVEMTTPSKQSNNKYAASSYLSLTPEQWRSRRSYSCQVMHEGSTVEKTVAPAECS chain 2: MSWAPVLLMLFVYCTGCGPQPVLHQPPAMSSALGTTIRLTCTLRNDHDIGVYSVYWYQQRPGHPPRFLLRYFSQSDKSQGPQVPPRFSGSKDVARNRGYLSISVTHVFGSGTQLTVLSQPQVQLVQ |
| 0.16 nM | 0.069 nM | HC 6/SLC 3 (antibody) chain 1: GQGTLVTVSSASTKGPQPVLHQPPAMSSALGTTIRLTCTLRNDHDIGVYSVYWYQQRPGHPPRFLLRYFSQSDKSQGPQVPPRFSGSKDVARNRGYLSISELQPEDEAMYYCAMGARSRCWPRGFQSKHNSVTHVFGSGTQLTVLSQPKATPSVTLFPPSSEELQANKATLVCLMNDFYPGILTVTWKADGTPITQGVEMTTPSKQSNNKYAASSYLSLTPEQWRSRRSYSCQVMHEGSTVEKTVAPAECS chain 2: MSWAPVLLMLFVYCTGCGPQPVLHQPPAMSSALGTTIRLTCTLRNDHDIGVYSVYWYQQRPGHPPRFLLRYFSQSDKSQGPQVPPRFSGSKDVARNRGYLSISVTHVFGSGTQLTVLSQPQVQLVQ |
| 0.196 nM | 0.071 nM | HC 8/SLC 3 (antibody) chain 1: GQGTLVTVSSASTKGPSVQPVLHQPPAMSSALGTTIRLTCTLRNDHDIGVYSVYWYQQRPGHPPRFLLRYFSQSDKSQGPQVPPRFSGSKDVARNRGYLSISELQPEDEAMYYCAMGARSRCWPRGFQSKHNSVTHVFGSGTQLTVLSQPKATPSVTLFPPSSEELQANKATLVCLMNDFYPGILTVTWKADGTPITQGVEMTTPSKQSNNKYAASSYLSLTPEQWRSRRSYSCQVMHEGSTVEKTVAPAECS chain 2: MSWAPVLLMLFVYCTGCGPQPVLHQPPAMSSALGTTIRLTCTLRNDHDIGVYSVYWYQQRPGHPPRFLLRYFSQSDKSQGPQVPPRFSGSKDVARNRGYLSISVTHVFGSGTQLTVLSQPQVQLVQ |
| 0.163 nM | 0.053 nM | HC 3/SLC 2 (antibody) chain 1: GQGTLVTVSSASTQPVLHQPPAMSSALGTTIRLTCTLRNDHDIGVYSVYWYQQRPGHPPRFLLRYFSQSDKSQGPQVPPRFSGSKDVARNRGYLSISELQPEDEAMYYCAMGARSRCWPRGFQSKHNSVTHVFGSGTQLTVLSQPKATPSVTLFPPSSEELQANKATLVCLMNDFYPGILTVTWKADGTPITQGVEMTTPSKQSNNKYAASSYLSLTPEQWRSRRSYSCQVMHEGSTVEKTVAPAECS chain 2: MSWAPVLLMLFVYCTGCGPQPVLHQPPAMSSALGTTIRLTCTLRNDHDIGVYSVYWYQQRPGHPPRFLLRYFSQSDKSQGPQVPPRFSGSKDVARNRGYLSISVTHVFGSGTQLTVLSQQVQLVQ |
| 0.136 nM | 0.078 nM | HC 9/SLC 3 (antibody) chain 1: GQGTLVTVSSASTKGPSVFQPVLHQPPAMSSALGTTIRLTCTLRNDHDIGVYSVYWYQQRPGHPPRFLLRYFSQSDKSQGPQVPPRFSGSKDVARNRGYLSISELQPEDEAMYYCAMGARSRCWPRGFQSKHNSVTHVFGSGTQLTVLSQPKATPSVTLFPPSSEELQANKATLVCLMNDFYPGILTVTWKADGTPITQGVEMTTPSKQSNNKYAASSYLSLTPEQWRSRRSYSCQVMHEGSTVEKTVAPAECS chain 2: MSWAPVLLMLFVYCTGCGPQPVLHQPPAMSSALGTTIRLTCTLRNDHDIGVYSVYWYQQRPGHPPRFLLRYFSQSDKSQGPQVPPRFSGSKDVARNRGYLSISVTHVFGSGTQLTVLSQPQVQLVQ |
| 0.188 nM | 0.053 nM | HC 4/SLC 2 (antibody) chain 1: GQGTLVTVSSASTKQPVLHQPPAMSSALGTTIRLTCTLRNDHDIGVYSVYWYQQRPGHPPRFLLRYFSQSDKSQGPQVPPRFSGSKDVARNRGYLSISELQPEDEAMYYCAMGARSRCWPRGFQSKHNSVTHVFGSGTQLTVLSQPKATPSVTLFPPSSEELQANKATLVCLMNDFYPGILTVTWKADGTPITQGVEMTTPSKQSNNKYAASSYLSLTPEQWRSRRSYSCQVMHEGSTVEKTVAPAECS chain 2: MSWAPVLLMLFVYCTGCGPQPVLHQPPAMSSALGTTIRLTCTLRNDHDIGVYSVYWYQQRPGHPPRFLLRYFSQSDKSQGPQVPPRFSGSKDVARNRGYLSISVTHVFGSGTQLTVLSQQVQLVQ |
| 0.139 nM | 0.061 nM | HC 6/SLC 6 (antibody) chain 1: GQGTLVTVSSASTKGPQPVLHQPPAMSSALGTTIRLTCTLRNDHDIGVYSVYWYQQRPGHPPRFLLRYFSQSDKSQGPQVPPRFSGSKDVARNRGYLSISELQPEDEAMYYCAMGARSRCWPRGFQSKHNSVTHVFGSGTQLTVLSQPKATPSVTLFPPSSEELQANKATLVCLMNDFYPGILTVTWKADGTPITQGVEMTTPSKQSNNKYAASSYLSLTPEQWRSRRSYSCQVMHEGSTVEKTVAPAECS chain 2: MSWAPVLLMLFVYCTGCGPQPVLHQPPAMSSALGTTIRLTCTLRNDHDIGVYSVYWYQQRPGHPPRFLLRYFSQSDKSQGPQVPPRFSGSKDVARNRGYLSISVTHVFGSGTQLTVLSQPKATQVQLVQ |
| 0.083 nM | 0.056 nM | HC 6/SLC 7 (antibody) chain 1: GQGTLVTVSSASTKGPQPVLHQPPAMSSALGTTIRLTCTLRNDHDIGVYSVYWYQQRPGHPPRFLLRYFSQSDKSQGPQVPPRFSGSKDVARNRGYLSISELQPEDEAMYYCAMGARSRCWPRGFQSKHNSVTHVFGSGTQLTVLSQPKATPSVTLFPPSSEELQANKATLVCLMNDFYPGILTVTWKADGTPITQGVEMTTPSKQSNNKYAASSYLSLTPEQWRSRRSYSCQVMHEGSTVEKTVAPAECS chain 2: MSWAPVLLMLFVYCTGCGPQPVLHQPPAMSSALGTTIRLTCTLRNDHDIGVYSVYWYQQRPGHPPRFLLRYFSQSDKSQGPQVPPRFSGSKDVARNRGYLSISVTHVFGSGTQLTVLSQPKATPQVQLVQ |
| 0.128 nM | 0.061 nM | HC 8/SLC 6 (antibody) chain 1: GQGTLVTVSSASTKGPSVQPVLHQPPAMSSALGTTIRLTCTLRNDHDIGVYSVYWYQQRPGHPPRFLLRYFSQSDKSQGPQVPPRFSGSKDVARNRGYLSISELQPEDEAMYYCAMGARSRCWPRGFQSKHNSVTHVFGSGTQLTVLSQPKATPSVTLFPPSSEELQANKATLVCLMNDFYPGILTVTWKADGTPITQGVEMTTPSKQSNNKYAASSYLSLTPEQWRSRRSYSCQVMHEGSTVEKTVAPAECS chain 2: MSWAPVLLMLFVYCTGCGPQPVLHQPPAMSSALGTTIRLTCTLRNDHDIGVYSVYWYQQRPGHPPRFLLRYFSQSDKSQGPQVPPRFSGSKDVARNRGYLSISVTHVFGSGTQLTVLSQPKATQVQLVQ |
| 0.049 nM | 0.054 nM | HC 10/SLC 15 (antibody) chain 1: GQGTLVTVSSASTKGPSVFPQPVLHQPPAMSSALGTTIRLTCTLRNDHDIGVYSVYWYQQRPGHPPRFLLRYFSQSDKSQGPQVPPRFSGSKDVARNRGYLSISELQPEDEAMYYCAMGARSRCWPRGFQSKHNSVTHVFGSGTQLTVLSQPKATPSVTLFPPSSEELQANKATLVCLMNDFYPGILTVTWKADGTPITQGVEMTTPSKQSNNKYAASSYLSLTPEQWRSRRSYSCQVMHEGSTVEKTVAPAECS chain 2: MSWAPVLLMLFVYCTGCGPQPVLHQPPAMSSALGTTIRLTCTLRNDHDIGVYSVYWYQQRPGHPPRFLLRYFSQSDKSQGPQVPPRFSGSKDVARNRGYLSISVTHVFGSGTQLTVLSQPKATPSVTGGGGSQVQLVQ |
